Assay results from US20090286314A1 (Innovent, published 2009).
Positions count from the first letter of the chain named.

B1: double mutant of R-5 (Mut B) (other)
chain: MSLPATHDLHISGSINGHEFDLEGSGKGNAKEGYQELHLKSNKGDLSFSPWILVPNIGYGFYQYLPFPDGAMSPYQAAMHDGSGYVMHRSMQFEDGAMLHSDHRYIYKGNHIKGEFRLKGSGFPADGPVMTNSLTAADWCVDKLLYPNDNTIIGKFDWTYTTTSGKRYQSDVQTTVTFGKPIAADILKKQPMFVFRKVELKHTKTELNFKQWQKAFQDIA
notes: Expressed in E. coli and purified; Eluted as a dimer; also called dimeric mutant
B2: triple mutant of R-5 (Mut C) (other)
chain: B1 chain with D157K
notes: Expressed in E. coli and purified; Eluted as a monomer; also called R-5C; monomeric mutant

Columns and labels:
[1] = target: the molecule itself; assay: gel chromatography, HiPrep Sephacryl S-200, high protein concentrations (self-association)
Source text: (§1) The wild-type fluorescent proteins have a tendency to self-aggregate and form tetramers. Among the limited number of new FPs that we so far have analyzed, no monomeric variant has been observed, but the tendency to self-aggregate appears to vary among individual variants. In order to generate a pure monomeric variant, which would be advantageous for certain applications, the protein R-5 (SEQ ID NO: 79) was subjected to limited mutagenesis after extensive 3-D modelling. Three amino acid residues were chosen as suitable candidates for mutagenesis, and three mutants with single, double and triple mutations were constructed and custom made by an external laboratory. After expression in E. coli and purification their aggregation state were analyzed by gel-chromatography on a HiPrep Sephacryl S-200 column. The conditions used (i.e. high protein concentrations) were chosen to promote aggregation, and EGFP, which is a weak forming dimer, did elute as a peak with an apparent molecular weight of ˜60 kDa, i.e. as a dimer.

[2] = target: the molecule itself; assay: gel chromatography, HiPrep Sephacryl S-200, high protein concentrations chosen to promote aggregation (self-association)
Source text: as §1

Protein	binding result [1]	binding result [2]
B1	binds	
B2		no binding
